According to patent US20060067886A1, “Gastrin receptor-avid peptide conjugates” (priority 1997, published 2006):

Experiment: in vivo
Details: SCID, mouse, in vivo, iv, 4 uCi, total radioactivity

Compound: CSCC[C@H](NC(=O)[C@H](CC(C)C)NC(=O)[C@H](Cc1cnc[nH]1)NC(=O)CNC(=O)[C@@H](NC(=O)[C@H](C)NC(=O)[C@H](Cc1c[nH]c2ccccc12)NC(=O)[C@H](CCC(N)=O)NC(=O)CCCCCCCNC(=O)CN1CCN(CC(=O)O)CCN(CC(=O)O)CCN(CC(=O)O)CC1)C(C)C)C(N)=O [111In-DOTA-8-Aoc-BBN[7-14]NH2, metal not drawn]
- tissue uptake dose at […] (Avg % ID, Blood, 15 min): 7.92 ± 2.03 %ID
- tissue uptake dose at 0.5 h (Avg % ID, Blood, 30 min): 2.47 ± 0.74 %ID
- tissue uptake dose at 1 h (Avg % ID, Blood, 1 hr): 0.92 ± 0.58 %ID
- tissue uptake dose at 48 h (Avg % ID, Blood, 48 hrs): 0.12 ± 0.05 %ID
- tissue uptake dose at […] (Avg % ID, Carcass, 15 min): 33.1 ± 5.51 %ID
- tissue uptake dose at 0.5 h (Avg % ID, Carcass, 30 min): 12.3 ± 3.27 %ID
- dose excreted at 24 h (Avg % ID, Feces, 24 hrs): 6.1 ± 2.6%
- dose excreted at 48 h (Avg % ID, Feces, 48 hrs): 5.89 ± 3.81%
- tissue uptake dose at […] (Avg % ID, Heart, 15 min): 0.2 ± 0.07 %ID
- tissue uptake dose at 0.5 h (Avg % ID, Heart, 30 min): 0.06 ± 0.02 %ID
- tissue uptake dose at 4 h (Avg % ID, Heart, 4 hrs): 0.01 ± 0.01 %ID
- tissue uptake dose at 48 h (Avg % ID, Heart, 48 hrs): 0.01 ± 0.01 %ID
- tissue uptake dose at […] (Avg % ID, Kidney, 15 min): 7.18 ± 3.16 %ID
- tissue uptake dose at 0.5 h (Avg % ID, Kidney, 30 min): 2.45 ± 0.78 %ID
- tissue uptake dose at 1 h (Avg % ID, Kidney, 1 hr): 1.81 ± 0.37 %ID
- tissue uptake dose at 4 h (Avg % ID, Kidney, 4 hrs): 0.97 ± 0.08 %ID
- tissue uptake dose at 48 h (Avg % ID, Kidney, 48 hrs): 0.16 ± 0.04 %ID
- tissue uptake dose at […] (Avg % ID, L. Intestine, 15 min): 5.84 ± 0.9 %ID
- tissue uptake dose at 0.5 h (Avg % ID, L. Intestine, 30 min): 4.53 ± 0.45 %ID
- tissue uptake dose at 1 h (Avg % ID, L. Intestine, 1 hr): 2.18 ± 0.86 %ID
- tissue uptake dose at 24 h (Avg % ID, L. Intestine, 24 hrs): 1.46 ± 0.42 %ID
- tissue uptake dose at 48 h (Avg % ID, L. Intestine, 48 hrs): 0.73 ± 0.21 %ID
- tissue uptake dose at 72 h (Avg % ID, L. Intestine, 72 hrs): 0.41 ± 0.05 %ID
- tissue uptake dose at […] (Avg % ID, Liver, 15 min): 1.85 ± 0.41 %ID
- tissue uptake dose at 0.5 h (Avg % ID, Liver, 30 min): 0.85 ± 0.21 %ID
- tissue uptake dose at 72 h (Avg % ID, Liver, 72 hrs): 0.08 ± 0.01 %ID
- tissue uptake dose at […] (Avg % ID, Lung, 15 min): 0.62 ± 0.25 %ID
- tissue uptake dose at 0.5 h (Avg % ID, Lung, 30 min): 0.2 ± 0.06 %ID
- tissue uptake dose at 24 h (Avg % ID, Lung, 24 hrs): 0.02 ± 0.01 %ID
- tissue uptake dose at 48 h (Avg % ID, Lung, 48 hrs): 0.01 %ID
- tissue uptake dose at […] (Avg % ID, Muscle, 15 min): 0.16 ± 0.06 %ID
- tissue uptake dose at 0.5 h (Avg % ID, Muscle, 30 min): 0.05 ± 0.02 %ID
- tissue uptake dose at 1 h (Avg % ID, Muscle, 1 hr): 0.01 ± 0.01 %ID
- tissue uptake dose at 24 h (Avg % ID, Muscle, 24 hrs): 0.01 ± 0.01 %ID
- tissue uptake dose at […] (Avg % ID, Pancreas, 15 min): 10.3 ± 1.44 %ID
- tissue uptake dose at 0.5 h (Avg % ID, Pancreas, 30 min): 7.37 ± 1.2 %ID
- tissue uptake dose at 4 h (Avg % ID, Pancreas, 4 hrs): 3.28 ± 0.8 %ID
- tissue uptake dose at 48 h (Avg % ID, Pancreas, 48 hrs): 0.17 ± 0.09 %ID
- tissue uptake dose at 72 h (Avg % ID, Pancreas, 72 hrs): 0.06 ± 0.02 %ID
- tissue uptake dose at […] (Avg % ID, S. Intestine, 15 min): 6.98 ± 0.35 %ID
- tissue uptake dose at 0.5 h (Avg % ID, S. Intestine, 30 min): 6.24 ± 0.46 %ID
- tissue uptake dose at 1 h (Avg % ID, S. Intestine, 1 hr): 7.45 ± 1.62 %ID
- tissue uptake dose at 4 h (Avg % ID, S. Intestine, 4 hrs): 2.43 ± 0.56 %ID
- tissue uptake dose at 24 h (Avg % ID, S. Intestine, 24 hrs): 0.98 ± 0.26 %ID
- tissue uptake dose at 48 h (Avg % ID, S. Intestine, 48 hrs): 0.32 ± 0.07 %ID
- tissue uptake dose at 72 h (Avg % ID, S. Intestine, 72 hrs): 0.15 ± 0.02 %ID
- tissue uptake dose at […] (Avg % ID, Spleen, 15 min): 0.1 ± 0.02 %ID
- tissue uptake dose at 0.5 h (Avg % ID, Spleen, 30 min): 0.08 ± 0.03 %ID
- tissue uptake dose at 48 h (Avg % ID, Spleen, 48 hrs): 0.01 ± 0.01 %ID
- tissue uptake dose at 72 h (Avg % ID, Spleen, 72 hrs): 0.01 ± 0.01 %ID
- tissue uptake dose at […] (Avg % ID, Stomach, 15 min): 0.98 ± 0.18 %ID
- tissue uptake dose at 0.5 h (Avg % ID, Stomach, 30 min): 0.65 ± 0.04 %ID
- tissue uptake dose at 1 h (Avg % ID, Stomach, 1 hr): 0.52 ± 0.11 %ID
- tissue uptake dose at 4 h (Avg % ID, Stomach, 4 hrs): 0.34 ± 0.23 %ID
- tissue uptake dose at 72 h (Avg % ID, Stomach, 72 hrs): 0.02 ± 0.01 %ID
- tissue uptake dose at […] (Avg % ID, Tumor, 15 min): 1.92 ± 1.22 %ID
- tissue uptake dose at 0.5 h (Avg % ID, Tumor, 30 min): 0.99 ± 0.62 %ID
- tissue uptake dose at 24 h (Avg % ID, Tumor, 24 hrs): 0.25 ± 0.13 %ID
- tissue uptake dose at 48 h (Avg % ID, Tumor, 48 hrs): 0.08 ± 0.05 %ID
- dose excreted at […] (Avg % ID, Urine, 15 min): 27.9 ± 10.3%
- dose excreted at 0.5 h (Avg % ID, Urine, 30 min): 62.6 ± 5.02%
- dose excreted at 1 h (Avg % ID, Urine, 1 hr): 68.6 ± 6.96%
- dose excreted at 4 h (Avg % ID, Urine, 4 hrs): 81.8 ± 3.82%
- dose excreted at 24 h (Avg % ID, Urine, 24 hrs): 87.2 ± 4.31%
- dose excreted at 48 h (Avg % ID, Urine, 48 hrs): 91.8 ± 4.13%
- dose excreted at 72 h (Avg % ID, Urine, 72 hrs): 92.5 ± 1.09%
- tissue uptake at […] (Avg % ID/gm, Blood, 15 min): 5.58 ± 2.43 %ID/g
- tissue uptake at 1 h (Avg % ID/gm, Blood, 1 hr): 0.6 ± 0.39 %ID/g
- tissue uptake at 48 h (Avg % ID/gm, Blood, 48 hrs): 0.07 ± 0.03 %ID/g
- tissue uptake at […] (Avg % ID/gm, Heart, 15 min): 2.2 ± 1.05 %ID/g
- tissue uptake at 0.5 h (Avg % ID/gm, Heart, 30 min): 0.62 ± 0.33 %ID/g
- tissue uptake at 4 h (Avg % ID/gm, Heart, 4 hrs): 0.13 ± 0.06 %ID/g
- tissue uptake at 24 h (Avg % ID/gm, Heart, 24 hrs): 0.05 ± 0.09 %ID/g
- tissue uptake at […] (Avg % ID/gm, Kidney, 15 min): 29 ± 14.4 %ID/g
- tissue uptake at 0.5 h (Avg % ID/gm, Kidney, 30 min): 8.7 ± 2.8 %ID/g
- tissue uptake at 1 h (Avg % ID/gm, Kidney, 1 hr): 5.66 ± 1.33 %ID/g
- tissue uptake at 4 h (Avg % ID/gm, Kidney, 4 hrs): 3.18 ± 0.43 %ID/g
